Measured values as given in the supplement of paper PMC12042874.
± gives the uncertainty stated by the source.

Test: amyloid nucleation score (Sup35N fusion, yeast selection) (log enrichment); library NNK2; higher = more nucleation; inactive = no reads after selection
In short: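 Yeast lacking psi expressed peptides of 20 random codons fused to Sup35N, received 100 μM copper sulfate for 24 hours, and were then grown for 7 days at 30°C on medium lacking adenine and uracil. Illumina sequencing of input and output plasmid inserts provided the reads. Nucleation scores are DiMSum log enrichments of output over input, centred on the mode of non-aggregating sequences. Any sequence with under 100 input reads was excluded.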
In the case of PFHPICVYKRPFLCPE, the amyloid nucleation score is reported as “inactive”. For PFLAFRGVWNFGL, the amyloid nucleation score was 5.1 ± 0.068. PFQSNNSEVDGSYYMSVRC gave an amyloid nucleation score of -0.705 ± 0.39. For PFTMSVFKSYKIAQRSSWAW, the amyloid nucleation score was 2.5 ± 0.089. PFWVGNGKQGVFGKFDCYVI gave an amyloid nucleation score of -1.19 ± 0.34. In the case of PFYTYSKYKCTKFTDNYYAQ, the amyloid nucleation score is reported as -1.02 ± 1.1. With PGAADRTVRYGSRRPPD the amyloid nucleation score was -0.003 ± 0.41. In the case of PGILRTFVETEYCITI, the amyloid nucleation score is reported as “inactive”. PGRRDSHVRAYQEGVVESVS gave an amyloid nucleation score of 0.051 ± 0.49. For PGSAIRVVSMRLWGRRRSAG, the amyloid nucleation score was 0.458 ± 0.45. For PGSMPRRMSRCWSIGLDGEE, the amyloid nucleation score was 1.3 ± 0.32. For PGSNL, the amyloid nucleation score was -0.037 ± 0.42. PHNYLYSFFRRIYYRIGCLN gave an amyloid nucleation score of -0.461 ± 0.3. PHQKSAY showed an amyloid nucleation score of -0.284 ± 0.79. Substance PHRKV has an amyloid nucleation score of -0.536 ± 0.76. PHSRNRFLMFA showed an amyloid nucleation score of -0.488 ± 1. In the case of PIFYSPLAFMLRMYHNG, the amyloid nucleation score is reported as -0.998 ± 0.38. PIKCDRSFWRR showed an amyloid nucleation score of 1.49 ± 0.22. PIMCKGNLTDFTFYCFCKFD gave an amyloid nucleation score of 6.6 ± 0.067. Substance PKFTMVPNNGMQVGIARNKW has an amyloid nucleation score of 0.43 ± 0.29. PKRFVLGY showed an amyloid nucleation score of -1.55 ± 0.62. In the case of PLFTINRVVMPNINVETFAG, the amyloid nucleation score is reported as -0.522 ± 0.39. With PLGSNACPTHFSCD the amyloid nucleation score was “inactive”. With PLITDFLAGMLSPENVSVPQ the amyloid nucleation score was 0.883 ± 0.51. With PLLSVVYTNLRSSDGRVV the amyloid nucleation score was 1.54 ± 0.31. In the case of PLQPTQTYPFNSVFDGHKRV, the amyloid nucleation score is reported as “inactive”. In the case of PLVTCHDDEVQGMKFVSFFI, the amyloid nucleation score is reported as -0.451 ± 0.76. For PMDEWHSFPLQNKLRVIGCG, the amyloid nucleation score was 0.115 ± 0.23. Substance PMNFYYIAPNICGLREKLWS has an amyloid nucleation score of 3.62 ± 0.064. For PNVAIYIPTGYGLTVTPPAS, the amyloid nucleation score was -1.02 ± 0.76. PQRLWISISAHTLKFPHL gave an amyloid nucleation score of 3.77 ± 0.073. For PQWEKRFKYTNEWAATFNGL, the amyloid nucleation score was “inactive”. With PRLCDECPSCVDLSGVWNPY the amyloid nucleation score was “inactive”. PRPFGKNWVKKDLNCLHKLN gave an amyloid nucleation score of -0.251 ± 0.35. With PRPVLAAALAKPLGTS the amyloid nucleation score was 0.87 ± 0.23. For PRTISSSRLMWRYVSYLVIV, the amyloid nucleation score was “inactive”. With PRVGRRGSLRKCPWLLWYVL the amyloid nucleation score was 0.052 ± 0.45. PRWGRTMGCFSFRDPCRVTG gave an amyloid nucleation score of -0.277 ± 0.35. PSIDSCRGRLVVRVQIRVEN showed an amyloid nucleation score of -1.24 ± 1.1. PSLMNEVRMGVQCLLFST gave an amyloid nucleation score of 0.108 ± 0.23. PSRLRYITICRVPGAMSDVN gave an amyloid nucleation score of 0.268 ± 0.27. PSRYAVLLCFGGVDTNVGIT gave an amyloid nucleation score of 4.967 ± 0.049. With PSSVKWTRSPGMRTTNGEVC the amyloid nucleation score was 1.36 ± 0.23. PSTIGRMVVLACWSDICRRG gave an amyloid nucleation score of 8.88 ± 0.059. With PSWDDFSSPEVS the amyloid nucleation score was -0.524 ± 0.39. For PTGPNSGNCIVLCPSDKSHE, the amyloid nucleation score was -0.363 ± 1.1. Substance PTGYILESTYFTGQGKCAGL has an amyloid nucleation score of -0.255 ± 1.1. With PTLHMGMPN the amyloid nucleation score was -0.013 ± 0.79. PTMFNFKIYQIVRVGLPIHL gave an amyloid nucleation score of -1.53 ± 0.76. Work on PTSNLSWVT yielded an amyloid nucleation score of 1.71 ± 0.17. Substance PVCCFAHMIIHYNCLGQKAY has an amyloid nucleation score of 2.08 ± 0.12. PVGWSNRFRTMLPDS showed an amyloid nucleation score of 0.861 ± 0.48. Work on PVHSAVATVLTLVNGKIGGA yielded an amyloid nucleation score of 1.24 ± 0.48. For PVIRRLEFGWQNASYG, the amyloid nucleation score was -0.564 ± 0.76. With PVKTNFCENINYFIVPGFAL the amyloid nucleation score was “inactive”. PVLYFLGLSMVDNTITRSTA showed an amyloid nucleation score of -0.763 ± 0.34. PVMDNLFSKAFVG showed an amyloid nucleation score of -0.741 ± 0.5. For PVNRQNFFSCD, the amyloid nucleation score was -1.67 ± 0.62. Work on PVYSSFYCCYVWHRNFRKYT yielded an amyloid nucleation score of -0.975 ± 0.29. Work on PWACIIYRLQGSPLINSRFN yielded an amyloid nucleation score of 1.04 ± 0.12. PWCESLCVRRGAESVSTWVK gave an amyloid nucleation score of 1.2 ± 0.22. Substance PYGVSPWVRVVSCSIEGNWT has an amyloid nucleation score of -0.289 ± 0.25. With PYMPGRMWSRILSVCSVCCV the amyloid nucleation score was 1.48 ± 0.58. For QCFDFTD, the amyloid nucleation score was 1.1 ± 0.38. With QCLQCGP the amyloid nucleation score was -0.553 ± 0.49. For QCYVIYS, the amyloid nucleation score was 4.513 ± 0.029. Substance QDEHIMVIVKLRRYTFNWEL has an amyloid nucleation score of 2.86 ± 0.11. Work on QELIK yielded an amyloid nucleation score of 0.574 ± 0.44. With QEYLLLVAAGKHVNVDKTYL the amyloid nucleation score was 0.594 ± 0.81.
